Assay results: paper PMC11742986

Tested on: RcnR (Salmonella enterica serovar Typhimurium SL1344 (100% sequence identity to E. coli RcnR))
Test: fluorescence anisotropy
Conditions: Ni(II), 1:1 NiII:RcnR tetramer; 10 nM DNA, 60 mM NaCl, 240 mM KCl, 10 mM HEPES pH 7.5, 25 C, anaerobic, Chelex-treated N2-purged buffers; apo-RcnR Kd 1.5e-7 M is from earlier work (ref 39)

Substance: rcnRA operator-promoter
- Kd: 3.09 µM
